The values below come from patent publication US20230242590A1.

Read-outs that look alike come from different tables or passages of the source.

Holding throughout (experiment): UV peptide exchange + HLA class I ELISA
Background: An ELISA detects its analyte on a solid surface through an enzyme-linked reagent.

Assay [1] has as its target HLA-A*02:01 (human).
Assay [2] concerns the target HLA-B*07:02 (human).
The target in assay [3] is HLA-B*08:01 (human). Particulars: remark: other sources report otherwise.
Assay [4] deals with HLA-A*24:02 (human).
The target of assay [5] is HLA-A*01:01 (human). To be noted: remark: other sources report otherwise.
Assay [6] concerns the target HLA-A*03:01 (human).
In assay [7] the target is HLA-A*11:01 (human).
[8] abbreviates: remark: other sources report otherwise.

For VLCLRPVGA (modifications not checked) [x15-23], the Bindings% (of positive control) in assay [1] (setting [8]) came to 31.7%. Consider GPCALRFTS (modifications not checked) [x67-75], for which, in assay [2], the Bindings% (of positive control) was determined as 26.9%.

Turning to HLSLRGLPV (modifications not checked) [x52-60], in assay [3], the Bindings% (of positive control) came to 79.8%. VFADATPTGW (modifications not checked) [p697-706]: the Bindings% (of positive control) in assay [4] is 40.4%. Take LPVCAFSSA (modifications not checked) [x58-66]: in assay [2] (setting [8]), the Bindings% (of positive control) worked out at 52.8%. Regarding CGYPALMPLY (modifications not checked) [p649-658], in assay [4], the Bindings% (of positive control) was determined as 38.1%.

Turning to MSTTDLEAY (modifications not checked) [x103-111], the Bindings% (of positive control) in assay [5] was 30.2%. Turning to FAVPNLQSL (modifications not checked) [p407-415], the Bindings% (of positive control) in assay [1] worked out at 33.3%. With RVHFASPLH (modifications not checked) [p829-837], the Bindings% (of positive control) in assay [6] amounted to 68.8%; in assay [7], 39.5%. Turning to PLDKGIKPYY (modifications not checked) [p124-133], the Bindings% (of positive control) in assay [5] came out at 26.7%. Turning to GYPALMPLY (modifications not checked) [p650-658], in assay [4], the Bindings% (of positive control) was determined as 42.7%. Still for that read-out and setting: the result for SFCGSPYSW (modifications not checked) [p167-175] reads 84%.

Consider WPKFAVPNL (modifications not checked) [p404-412], for which, in assay [2] (setting [8]), the Bindings% (of positive control) amounted to 70.5%. Turning to VLHKRTLGL (modifications not checked) [x92-100], in assay [3], the Bindings% (of positive control) is 60.8%. In the case of TTDLEAYFK (modifications not checked) [x105-113], in assay [5], the Bindings% (of positive control) is 41.7%. Turning to STTDLEAYFK (modifications not checked) [x104-113], in assay [7] (setting [8]), the Bindings% (of positive control) was 98.7%.

Turning to LPIHTAELL (modifications not checked) [p723-731], the Bindings% (of positive control) in assay [2] (setting [8]) is 32.3%.
